Measured values published in patent publication US20170313769A1 (Pfizer, published 2017).

What was measured:
CID1276 = biological target: T1, CID1276 (human (IFNβ with IFNα sequence inserted), UniProt P01574 22-187); assay: cell-based or functional assay
T1 chain: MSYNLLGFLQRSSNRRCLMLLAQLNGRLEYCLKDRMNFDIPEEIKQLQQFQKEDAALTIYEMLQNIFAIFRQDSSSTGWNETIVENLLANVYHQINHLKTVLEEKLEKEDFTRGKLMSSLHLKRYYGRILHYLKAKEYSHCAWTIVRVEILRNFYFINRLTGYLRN

CID1285 = biological target: T2, CID1285 (human (IFNβ with IFNα sequence inserted), UniProt P01574 22-187); assay: cell-based or functional assay
T2 chain: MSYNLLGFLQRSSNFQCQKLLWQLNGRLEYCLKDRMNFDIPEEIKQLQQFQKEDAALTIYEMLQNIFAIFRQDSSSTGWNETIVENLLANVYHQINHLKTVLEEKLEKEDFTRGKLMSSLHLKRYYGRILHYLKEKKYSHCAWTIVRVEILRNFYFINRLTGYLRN

CID1287 = biological target: T3, CID1287 (human (IFNβ with IFNα sequence inserted), UniProt P01574 22-187); assay: cell-based or functional assay
T3 chain: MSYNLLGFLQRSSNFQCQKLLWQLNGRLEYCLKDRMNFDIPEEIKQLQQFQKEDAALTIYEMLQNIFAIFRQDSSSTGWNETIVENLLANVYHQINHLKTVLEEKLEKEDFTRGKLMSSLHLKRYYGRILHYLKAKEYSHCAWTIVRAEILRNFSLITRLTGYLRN

[1] = biological target: T4, Human IFNβ (mature human interferon beta) (human, UniProt P01574 22-187); assay: plate ELISA, human IFNβ coated at 5 µg/mL, antibody titrated from 30 nM
T4 construct: Recombinant human IFNβ (Peprotech for SPR); In some functional assays it is endogenous IFNβ secreted by primary human cells; also called hIFN-β; recombinant human IFNβ

[2] = biological target: T4, Human IFNβ (mature human interferon …); assay: SPR, Biacore T200; CTI-AF1 immobilized on CM5 chip, human IFNβ (Peprotech) 10 to 0.078125 nM, 1:1 model

T4 sequence (P01574 22-187): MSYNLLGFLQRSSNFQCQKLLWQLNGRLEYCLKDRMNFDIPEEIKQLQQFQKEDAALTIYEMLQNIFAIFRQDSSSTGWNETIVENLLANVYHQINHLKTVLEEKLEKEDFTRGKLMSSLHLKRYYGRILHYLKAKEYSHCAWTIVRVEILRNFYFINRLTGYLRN

B1: CTI-AF1 (antibody, human IgG1, kappa, V domains shown)
VH: QVQLVQSGAEVKKPGSSVKVSCKASGYTFSRYWMHWVRQAPGQGLEWMGHIDPSDSYTYYNQKFKGRVTITADESTSTAYMELSSLRSEDTAVYYCARWDYGNLLFEYWGQGTLVTVSS
VL: DIQMTQSPSSLSASVGDRVTITCRTSQDIGNYLNWYQQKPGKAFKLLIYSTSRLHSGVPSRFSGSGSGTDFTLTISSLQPEDFATYYCQQGIILPITFGGGTKVEIKR
notes: Humanized IgG1; The C-terminal K of the heavy chain is printed as optional, '(K)'; also called anti-IFNβ antibody; humanized IgG1 antibody against interferon beta
- IC50 (nM), neutralization of type I IFN-induced STAT1 phosphorylation (CID1276): 0.2 nM
- IC50 (nM), neutralization of type I IFN-induced STAT1 phosphorylation (CID1285): 0.4 nM
- IC50 (nM), neutralization of type I IFN-induced STAT1 phosphorylation (CID1287): 0.3 nM
- EC50 [1]: 0.0151 nM
- Kd [2]: 0.0367 nM
